Measured values from article PMC6453957, “Specific inhibition of splicing factor activity by decoy RNA oligonucleotides”.

Biological target: T1, RBFOX1 RRM (UniProt Q9NWB1 109-208)
T1 sequence: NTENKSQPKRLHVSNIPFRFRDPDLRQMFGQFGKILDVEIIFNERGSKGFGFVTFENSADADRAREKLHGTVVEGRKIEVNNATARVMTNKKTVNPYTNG
Experiment: NMR 1H-15N HSQC titration; 313 K; very large perturbations; switchSENSE titration: T100 (10 mM Tris-HCl pH 7.4, 100 mM NaCl, 0.05% Tween20), 37 C; sizing: T40 (same with 40 mM NaCl), 37 C; NMR: NMR buffer (RNA in T40), 313 K
Conditions: protein: recombinant; tags: N-terminal 6xHis; single strand

B1: RBFOXi NMR RNA (ssRNA)
RNA: UGCAUGU
binding result: binds
